The chains are these.
B1: hzsp34.78 (antibody, human IgG1, lambda, L234A L235A, V domains shown)
VH: EVQLVESGGGLVQPGGSLKLSCAASGFTFGTYAMNWVRQASGKGLEWVGRIRSKYNNYATYYADSVKDRFTISRDDSKSTLYLQMNSLKTEDTAVYYCARHGNFGQSYVSWFAYWGQGTTVTVSS
VL: QAVVTQEPSLTVSPGGTVTLTCRSSTGAVTTSNYANWVQQKPGQAPRGLIGGTNKRAPGVPARFSGSLLGDKAALTLLGAQPEDEAEYYCALWYSNLWVFGQGTKLTVLG
notes: CDR mutant of hzsp34.24; IgG1 L234A L235A, lambda
B2: hzsp34.104 (antibody, human IgG1, lambda, L234A L235A, V domains shown)
VH: B1 VH with G30N
VL: B1 VL with T31G
notes: as for B1
B3: hzsp34.92 (antibody, human IgG1, lambda, L234A L235A, V domains shown)
VH: B1 VH with G30N, S107R
VL: B1 VL
notes: as for B1
B4: hzsp34.91 (antibody, human IgG1, lambda, L234A L235A, V domains shown)
VH: B1 VH with G30N, Q106G
VL: B1 VL
notes: as for B1
B5: hzsp34.83 (antibody, human IgG1, lambda, L234A L235A, V domains shown)
VH: B1 VH with G30N, Y55A
VL: B1 VL
notes: as for B1
B6: hzsp34.89 (antibody, human IgG1, lambda, L234A L235A, V domains shown)
VH: B1 VH with G30N, F104A
VL: B1 VL
notes: as for B1
B7: hzsp34.100 (antibody, human IgG1, lambda, L234A L235A, V domains shown)
VH: B1 VH with G30N, Q106G, S107R
VL: B1 VL
notes: as for B1
B8: hzsp34.85 (antibody, human IgG1, lambda, L234A L235A, V domains shown)
VH: B1 VH with G30N, N57G
VL: B1 VL
notes: as for B1
B9: hzsp34.79 (antibody, human IgG1, lambda, L234A L235A, V domains shown)
VH: B1 VH with G30N, T31G
VL: B1 VL
notes: as for B1
B10: hzsp34.94 (antibody, human IgG1, lambda, L234A L235A, V domains shown)
VH: B1 VH with G30N, V109A
VL: B1 VL
notes: as for B1
B11: hzsp34.105 (antibody, human IgG1, lambda, L234A L235A, V domains shown)
VH: B1 VH with G30N
VL: B1 VL with S32R
notes: as for B1
B12: hzsp34.103 (antibody, human IgG1, lambda, L234A L235A, V domains shown)
VH: B1 VH with G30N
VL: B1 VL with T30G
notes: as for B1
B13: hzsp34.88 (antibody, human IgG1, lambda, L234A L235A, V domains shown)
VH: B1 VH with G30N, N103G
VL: B1 VL
notes: as for B1
B14: hzsp34.93 (antibody, human IgG1, lambda, L234A L235A, V domains shown)
VH: B1 VH with G30N, Y108A
VL: B1 VL
notes: as for B1
B15: hzsp34.87 (antibody, human IgG1, lambda, L234A L235A, V domains shown)
VH: B1 VH with G30N, G102Y
VL: B1 VL
notes: as for B1
B16: hzsp34.99 (antibody, human IgG1, lambda, L234A L235A, V domains shown)
VH: B1 VH with G30N, F104A, G105Y
VL: B1 VL
notes: as for B1
B17: hzsp34.82 (antibody, human IgG1, lambda, L234A L235A, V domains shown)
VH: B1 VH with G30N, S53L
VL: B1 VL
notes: as for B1
B18: hzsp34.84 (antibody, human IgG1, lambda, L234A L235A, V domains shown)
VH: B1 VH with G30N, N56G
VL: B1 VL
notes: as for B1
B19: hzsp34.86 (antibody, human IgG1, lambda, L234A L235A, V domains shown)
VH: B1 VH with G30N, H101A
VL: B1 VL
notes: as for B1
B20: hzsp34.81 (antibody, human IgG1, lambda, L234A L235A, V domains shown)
VH: B1 VH with G30N, R52S
VL: B1 VL
notes: as for B1
B21: hzsp34.80 (antibody, human IgG1, lambda, L234A L235A, V domains shown)
VH: B1 VH with G30N, Y32A
VL: B1 VL
notes: as for B1
B22: hzsp34.101 (antibody, human IgG1, lambda, L234A L235A, V domains shown)
VH: B1 VH with G30N, Y108A, V109A
VL: B1 VL
notes: as for B1
B23: hzsp34.102 (antibody, human IgG1, lambda, L234A L235A, V domains shown)
VH: B1 VH with G30N
VL: B1 VL with R23G
notes: as for B1
B24: hzsp34.98 (antibody, human IgG1, lambda, L234A L235A, V domains shown)
VH: B1 VH with G30N, G102Y, N103G
VL: B1 VL
notes: as for B1

Positions count from the first letter of the chain named. Names and notes keep the numbering of the source.

T1 sequence (P07766 23-126, chain 1 of 2): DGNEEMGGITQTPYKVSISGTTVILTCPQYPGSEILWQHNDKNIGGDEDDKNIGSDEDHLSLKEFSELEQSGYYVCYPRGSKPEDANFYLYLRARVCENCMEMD
T1 sequence (P04234 22-105, chain 2 of 2): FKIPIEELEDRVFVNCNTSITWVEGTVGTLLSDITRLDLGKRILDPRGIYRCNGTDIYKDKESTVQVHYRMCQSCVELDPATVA

One assay concerns the target T1, human CD3 E&D complex protein (Sino Biological Inc., CT026H0323H) (human, UniProt P07766 23-126; P04234 22-105).
T1 construct: bought heterodimer; also called human CD3 protein (CT026H0323H)
Nature of the assay: BLI, antibody on sensor. (In general: Biolayer interferometry detects binding as a change in optical thickness at a sensor tip.)
Take B1: binding was put at a Kd of 1.35 nM, the koff (usually the first-order rate constant of dissociation) came out at 0.0003 s⁻¹ and the on-rate constant (kon) (usually the rate constant with which the complex forms) was found to be 223000 M⁻¹ s⁻¹.
Take B2: binding was characterised by a dissociation constant (Kd) of 1.93 nM, the koff is 0.000542 s⁻¹ and the kon came to 281000 M⁻¹ s⁻¹.
For the molecule B3, the affinity, expressed as Kd, was 0.772 nM; the off-rate (koff) was determined as 0.0002 s⁻¹; the kon was found to be 259000 M⁻¹ s⁻¹.
B4: the Kd (commonly the free concentration of one partner at which half of the binding sites on the other are occupied at equilibrium, for simple one-to-one binding) was 1.88 nM; the koff stood at 0.000528 s⁻¹; the on-rate (kon) came to 280000 M⁻¹ s⁻¹.
B5 returned a Kd of 0.928 nM, a koff of 0.0002 s⁻¹ and an on-rate (kon) of 216000 M⁻¹ s⁻¹.
With B6, the Kd is 6.62 nM, the koff came to 0.00094 s⁻¹ and the kon is 142000 M⁻¹ s⁻¹.
B7 came in with a Kd of 1.13 nM, a dissociation rate constant (koff) of 0.000276 s⁻¹ and a kon of 243000 M⁻¹ s⁻¹.
Regarding B8, the affinity, expressed as Kd, was 1.32 nM; the koff came out at 0.000304 s⁻¹; the kon amounted to 230000 M⁻¹ s⁻¹.
Turning to B9, binding was characterised by a dissociation constant (Kd) of 0.507 nM, the koff was determined as 0.000118 s⁻¹ and the kon worked out at 233000 M⁻¹ s⁻¹.
In turn, B10 returned a Kd of 0.977 nM, an off-rate constant (koff) of 0.0002 s⁻¹ and an on-rate constant (kon) of 205000 M⁻¹ s⁻¹.
The corresponding values for B11 are 1.3 nM, 0.000307 s⁻¹ and 235000 M⁻¹ s⁻¹.
In the case of B12, binding was put at a Kd of 1.34 nM, the dissociation rate constant (koff) stood at 0.000325 s⁻¹ and the kon was determined as 243000 M⁻¹ s⁻¹.
B13 returned an equilibrium dissociation constant (Kd) of 4.55 nM, a koff of 0.000797 s⁻¹ and a kon of 175000 M⁻¹ s⁻¹.
For B14, the affinity, expressed as Kd, was 0.976 nM; the dissociation rate constant (koff) stood at 0.00026 s⁻¹; the association rate constant (kon) amounted to 266000 M⁻¹ s⁻¹.
On to B15, for which the Kd turned out to be 0.88 nM, the off-rate constant (koff) was 0.000152 s⁻¹ and the on-rate constant (kon) was found to be 173000 M⁻¹ s⁻¹.
The corresponding values for B16 are 9.63 nM, 0.0011 s⁻¹ and 114000 M⁻¹ s⁻¹.
B17 showed a dissociation constant Kd of 10.3 nM, a koff of 0.00168 s⁻¹ and a kon of 163000 M⁻¹ s⁻¹.
The corresponding values for B18 are 0.812 nM, 0.0002 s⁻¹ and 246000 M⁻¹ s⁻¹.
Regarding B19, binding was characterised by a dissociation constant (Kd) of 1.39 nM, the off-rate constant (koff) came out at 0.000354 s⁻¹ and the kon turned out to be 255000 M⁻¹ s⁻¹.
The corresponding values for B20 are 7.69 nM, 0.00143 s⁻¹ and 186000 M⁻¹ s⁻¹.
The matching figures for B21: 6.55 nM, 0.00147 s⁻¹ and 225000 M⁻¹ s⁻¹.
The matching figures for B22: 3.77 nM, 0.00082 s⁻¹ and 217000 M⁻¹ s⁻¹.
Regarding B23, the affinity, expressed as Kd, was 1.69 nM; the koff was 0.000423 s⁻¹; the kon amounted to 250000 M⁻¹ s⁻¹.
The matching figures for B24: 9.15 nM, 0.00184 s⁻¹ and 201000 M⁻¹ s⁻¹.

A further assay deals with T2, human CD3E&G complex (Sino Biological Inc., CT041-H0305H) (human, UniProt P07766 23-126; P09693 23-116).
T2 construct: bought heterodimer; also called human CD3E&G antigen
T2 sequence (P07766 23-126, chain 1 of 2): as the sequence (P07766 23-126, chain 1 of 2) above
T2 sequence (P09693 23-116, chain 2 of 2): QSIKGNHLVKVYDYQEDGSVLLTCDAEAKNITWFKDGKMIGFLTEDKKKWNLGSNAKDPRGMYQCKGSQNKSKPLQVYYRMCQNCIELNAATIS
Nature of the assay: BLI, antibody on sensor.
As to B1, the Kd amounted to 8.97 nM, the koff was found to be 0.00224 s⁻¹ and the kon is 250000 M⁻¹ s⁻¹.
B2: the affinity, expressed as Kd, was 8.54 nM; the off-rate (koff) amounted to 0.00198 s⁻¹; the on-rate constant (kon) amounted to 231000 M⁻¹ s⁻¹.
Turning to B3, the equilibrium dissociation constant (Kd) was 4.82 nM, the koff amounted to 0.00101 s⁻¹ and the kon was 210000 M⁻¹ s⁻¹.
B4: the Kd was 8.53 nM, the dissociation rate constant (koff) worked out at 0.00195 s⁻¹ and the kon came to 228000 M⁻¹ s⁻¹.
Molecule B5 came in with a Kd of 3.6 nM, an off-rate constant (koff) of 0.000791 s⁻¹ and a kon of 220000 M⁻¹ s⁻¹.
Regarding B6, the Kd is 13.8 nM, the dissociation rate constant (koff) was 0.00282 s⁻¹ and the kon came to 205000 M⁻¹ s⁻¹.
Molecule B7 gave a Kd of 8.33 nM, an off-rate (koff) of 0.00171 s⁻¹ and a kon of 205000 M⁻¹ s⁻¹.
The matching figures for B8: 8.08 nM, 0.00201 s⁻¹ and 249000 M⁻¹ s⁻¹.
The corresponding values for B9 are 6.36 nM, 0.00154 s⁻¹ and 242000 M⁻¹ s⁻¹.
B10 came in with a dissociation constant (Kd) of 4.63 nM, a koff of 0.000821 s⁻¹ and a kon of 177000 M⁻¹ s⁻¹.
The matching figures for B11: 10.6 nM, 0.0021 s⁻¹ and 199000 M⁻¹ s⁻¹.
B12 displayed a Kd of 7.57 nM, an off-rate (koff) of 0.00191 s⁻¹ and a kon of 253000 M⁻¹ s⁻¹.
As to B13, the Kd turned out to be 15.8 nM, the koff was 0.00205 s⁻¹ and the association rate constant (kon) was found to be 130000 M⁻¹ s⁻¹.
The matching figures for B14: 3.42 nM, 0.000836 s⁻¹ and 245000 M⁻¹ s⁻¹.
For the molecule B15, the Kd was 6.06 nM, the koff worked out at 0.000997 s⁻¹ and the association rate constant (kon) was found to be 165000 M⁻¹ s⁻¹.
On to B16, for which the binding result was “no binding”.
Molecule B17 registered a dissociation constant Kd of 12 nM, an off-rate constant (koff) of 0.00191 s⁻¹ and a kon of 159000 M⁻¹ s⁻¹.
In turn, B18 displayed a Kd of 4.89 nM, an off-rate (koff) of 0.00114 s⁻¹ and a kon of 233000 M⁻¹ s⁻¹.
The matching figures for B19: 6.61 nM, 0.00144 s⁻¹ and 219000 M⁻¹ s⁻¹.
B20 displayed a Kd of 11.1 nM, an off-rate (koff) of 0.00157 s⁻¹ and an on-rate (kon) of 142000 M⁻¹ s⁻¹.
Turning to B21, binding was characterised by a dissociation constant (Kd) of 15.4 nM, the koff was 0.00213 s⁻¹ and the kon was 138000 M⁻¹ s⁻¹.
The corresponding values for B22 are 4.3 nM, 0.000636 s⁻¹ and 148000 M⁻¹ s⁻¹.
Molecule B23 returned a dissociation constant (Kd) of 8.52 nM, a koff of 0.0019 s⁻¹ and an on-rate constant (kon) of 222000 M⁻¹ s⁻¹.
Consider B24, for which the binding result is “no binding”.

Source of the values: patent publication US20230374132A1 (Innovent, published 2023).
